Positions count from the first letter of the chain named. Square brackets hold non-standard residues; d marks the D form. Ends that are not written are not given here. pY = N[C@@H](Cc1ccc(OP(=O)(O)O)cc1)C(=O)O

By Km is commonly meant the concentration of substrate that gives half-maximal velocity.

Experiment [1] addresses T1, PTP-1B DA (trapping mutant) (Homo sapiens, UniProt P18031, D181A).
T1 construct: specific primers corresponding to the beginning and the end of the catalytic domain of every PTPs were used; made in house; host or cells: Escherichia coli BL21 (codon +)
T1 sequence (P18031 3-277 D181A limits assumed): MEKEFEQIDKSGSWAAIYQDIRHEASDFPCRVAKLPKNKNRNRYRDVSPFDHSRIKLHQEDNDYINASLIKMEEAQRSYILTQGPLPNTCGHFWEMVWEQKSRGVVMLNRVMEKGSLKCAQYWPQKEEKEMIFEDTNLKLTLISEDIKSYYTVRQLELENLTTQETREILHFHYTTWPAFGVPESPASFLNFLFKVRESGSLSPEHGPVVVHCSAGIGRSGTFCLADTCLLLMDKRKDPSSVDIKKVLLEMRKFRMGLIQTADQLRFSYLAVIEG
Briefly: SPOT analysis, membrane peptides probed with radiolabeled PTP. The format is binding. Conditions: two phosphorylated Tyr, compared with single ones. On the procedure:
Labelling of GST-PTP for the SPOT analysis was performed as follows: 2 to 5 μg of GST fusion proteins were bound to glutathion-sepharose beads (Amersham Pharmacia Biotech) at 4° C. After washes GST fusion proteins were radiolabeled by 50 units of protein kinase from bovine heart (Sigma) in presence of 35 μCi of (γ-32P) ATP in PKA buffer (20 mM Tris pH 7.5, 100 mM NaCl, 12 mM MgCl2, 1 mM DTT) for 30 minutes on ices. After washes, fusion proteins were eluted from beads by 10 mM free glutathione in 50 mM Tris, pH 8.0 (28).
Peptides were manually synthesized on derivatized cellulose membrane provided by Sigma-Genosys, which also provided the 20 Fmoc-amino acids active esters. Fmoc-phosphotyrosines from Novabiochem (#04-12-1156) were incorporated in presence of the coupling reagent, N,N′-Diisopropylcarbodiimide (DIC; Sigma) and hydroxybenzotriale (HOBt; Fluka; Espanel et al., submitted).
Membranes were blocked (at least 2 hours) and probed at 4° C. in Western wash buffer (10 mM Tris, pH 7.4, 0.1% Triton X-100 and 150 mM NaCl)+SPOT blocking buffer (Sigma-Genosys). After 2 hours, membranes were washed several times in Western wash buffer and were autoradiographed.

For another experiment, the target named is T2, PTP1B trapping mutant (Homo sapiens, UniProt P18031, D181A).
T2 construct: These two restriction sites were used to clone the catalytic domain in frame into a pGEX4TK vector (Pharmacia); made in house; host or cells: Escherichia coli BL21 (codon +)
T2 sequence (P18031 3-277 D181A limits assumed): T1 sequence (P18031 3-277 D181A limits assumed)
Briefly: Panning of the tyrosine-biased phage library and sequencing of trapped clones. In kind it is binding. The following applies: after three pannings, sequenced trapped phages. On the procedure: Phages (10^9-10^10) were incubated for three hours at 30° C. in the kinase buffer (25 mM Tris pH7.5, 5 mM MgCl2, 2.5 mM MnCl2, 2.5 mM DTT and 1 mM ATP) in a total volume of 20 μl. […] Therefore, the total library was phosphorylated and passed through an antiPTyr column (Upstate). The bound phages were eluted with phenylphosphate, and the clones were passed twice again in the column. The amplified Tyrosine-carrying phages were then stocked at 4° C. in TE and used for the trapping experiment (see below). […] Furthermore, no sequences were found twice. […] This was checked following our phosphorylation protocol and using (γ-32P) ATP as a tracer.
Phages (10^8 to 10^9) were incubated in kinase buffer (20 mM Tris pH7.5, 5 mM MgCl2, 2.5 mM MnCl2, 1 mM ATP, 2.5 mM DTT and with or without 3 Units of src kinase) for 3 hours at 30° C. The p60src, purified from Baculovirus, was purchased from Upstate Biotech. Gluthation-Sepharose beads were pre-coated with 3 μg of either GST or PTP-GST for 4 hours at 4° C. in a solution of Trapping Buffer (20 mM Tris pH 7.5, 150 mM NaCl and 1 mM EDTA) with 1% BSA final. The phages were first pre-cleared using GST-beads for 30 minutes at 4° C., spun down and the supernatant was incubated with the coated PTP-GST for 1.5 hours at 4° C. with a constant shaking. Finally beads were spun down and washed several times (5 times for the first panning, then 10 times) with a solution of PBS with 0.25% Tween® final. Phages were eluted from PTP-GST by an acidic treatment (glycine buffer, pH 2.7) for 10 minutes at RT with a constant shaking, beads were spun down and phages were recovered in the supernatant. One tenth volume of a 1 M Tris pH 9.0 solution was added in order to restore the pH. Phages were finally titred in both fractions (bound and unbound) and the rest of the bound fraction was used to infect XL1 MRF′ Bacteria (Stratagene) following described procedures (24). The day after, cells were scraped and phages were amplified using helper phage M13K07 (Pharmacia) using the manufacturer's procedures.
When an increase in the number of trapped clones was observed, phages where purified as single clones and colony-PCR was performed using phage primers, forward: 5′ATG AAA AAG TCT TTA GTC CTC3′ and reverse: 5′CAG CTT GAT ACC GAT AGT TGC3′. The PCR products were then purified and sequenced using the same primers. Sequences were read in both direction using SeqmanII Software.

Another experiment has as its target T3, WT PTP1B (Homo sapiens, UniProt P18031).
T3 construct: These two restriction sites were used to clone the catalytic domain in frame into a pGEX4TK vector (Pharmacia); GST (N); made in house; host or cells: Escherichia coli BL21 (codon +)
T3 sequence (P18031 3-277 limits assumed): T1 sequence (P18031 3-277 D181A limits assumed) with A179D
Briefly: Dephosphorylation assay on GST-PEP constructs. The format is biochemical. The following applies: not shown. On the procedure: PEP-GST constructs were prepared as follows: the primers used correspond to the pVIII capsid sequence of M13+two restriction sites (XhoI and NotI): 5′TATCTCGAGTCTTTCGCTGCTGAGGGT GA3′ for the sense and 5′ATAGCGGCCGCTTGCAGGGAGTCAAAGGCC G3′ for the antisense. The DNA of the phage was directly amplified by adding 10^9 phages to the PCR mix. After PCR using Herculase Polymerase (Stratagene), the DNA fragments (100 bp) were purified using Microcon® PCR (Millipore) and gel extraction was performed with Utrafree®-DA (Millipore). The cloning and the protein purification were finally accomplished following the same protocol as for the PTPs, with the only difference that TKB1 (Stratagene) bacteria were transformed and a single colony was grown and induced for protein production and phosphorylation exactly as described by the manufacturer. Again, all constructs were checked by DNA sequencing before protein production.
100 ng of PEP-GST construct was incubated with 10 ng of PTP wild type in PTP buffer (50 mM Hepes pH 7.4, 0.05% Nonidet NP-40 and 1 mM DTT). The reaction was stopped by mixing equal volume aliquots with a solution of 50 mM vanadate at different laps of time. […]

The next experiment deals with T4, Sap1 (Homo sapiens, UniProt Q9HD43).
T4 sequence (Q9HD43 820-1079 limits assumed): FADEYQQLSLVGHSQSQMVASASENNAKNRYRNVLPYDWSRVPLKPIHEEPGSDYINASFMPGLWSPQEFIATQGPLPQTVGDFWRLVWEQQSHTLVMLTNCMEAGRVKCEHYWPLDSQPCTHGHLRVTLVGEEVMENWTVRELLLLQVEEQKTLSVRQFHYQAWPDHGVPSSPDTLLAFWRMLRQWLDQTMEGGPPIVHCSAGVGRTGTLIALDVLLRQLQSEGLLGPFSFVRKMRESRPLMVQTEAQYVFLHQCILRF
The experiment is described as follows: Km of example phosphopeptide substrates (Table IX summary). In kind it is biochemical. Conditions: phosphopeptide as Sap1 substrate.

The target of another experiment is SHP1 (Homo sapiens, UniProt P29350). The following applies: classification of Wang Peng et al. (68); cited from earlier work.
SHP1, sequence (P29350 whole entry): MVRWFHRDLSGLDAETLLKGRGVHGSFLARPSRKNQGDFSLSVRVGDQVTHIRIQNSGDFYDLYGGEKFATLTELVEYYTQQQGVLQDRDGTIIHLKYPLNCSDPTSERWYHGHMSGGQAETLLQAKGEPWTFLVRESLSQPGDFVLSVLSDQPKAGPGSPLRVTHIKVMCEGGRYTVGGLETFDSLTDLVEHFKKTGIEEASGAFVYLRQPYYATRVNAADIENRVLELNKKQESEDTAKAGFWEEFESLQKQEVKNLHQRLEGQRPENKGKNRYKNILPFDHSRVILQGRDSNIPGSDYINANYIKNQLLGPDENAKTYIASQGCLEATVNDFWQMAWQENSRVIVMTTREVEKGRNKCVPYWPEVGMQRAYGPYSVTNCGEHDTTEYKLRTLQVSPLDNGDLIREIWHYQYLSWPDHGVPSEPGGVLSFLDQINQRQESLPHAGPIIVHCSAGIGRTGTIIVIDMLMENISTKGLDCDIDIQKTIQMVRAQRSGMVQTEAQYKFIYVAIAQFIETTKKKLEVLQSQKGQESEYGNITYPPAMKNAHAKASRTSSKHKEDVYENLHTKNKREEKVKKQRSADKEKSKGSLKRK

“EFpYATYGSAATDPAK (EF[pY]ATYGSAATDPAK) [Clone 1b-1]”: the “SPOT binding to PTP1B trapping mutant, double phosphorylated peptide” value in experiment [1] is listed as “did not seem to react as well as single ones”. For the same substance, the “Copy in the pool” value with PTP1B trapping mutant is 4×. The “Dephosphorylation of displayed peptide (GST fusion) by WT PTP1B” value with WT PTP1B was “can dephosphorylate the displayed peptide”.
For the substance “EFpYGAFA/G (chain 1 EF[pY]GAFA; chain 2 EF[pY]GAFG)”, the Km with Sap1 worked out at 7 µM.
With “RNNEFpYA-NH2 (RNNEF[pY]A-NH2; N-terminus assumed; SMILES C[C@H](NC(=O)[C@H](Cc1ccc(OP(=O)(O)O)cc1)NC(=O)[C@H](Cc1ccccc1)NC(=O)[C@H](CCC(=O)O)NC(=O)[C@H](CC(N)=O)NC(=O)[C@H](CC(N)=O)NC(=O)[C@@H](N)CCCNC(=N)N)C(N)=O) [SHP-1 peptide of Wang Peng et al., excluded from the invention]”, the “Substrate class for SHP-1” value with SHP1 is “class 3”.

The values are drawn from patent US20060241020A1, “Protein tyrosine phosphatase inhibitors” (Applied Research Systems ARS Holdings N.V., priority 2002, published 2006).
